Results as given in US20120213774A1 (Hoffmann-La Roche, published 2012).

T1: Monomeric human ST2 ECD with 6His Avitag (human, UniProt Q01638 19-328)
T1 construct: extracellular domain; also called human ST2 ECD (His-Avitag monomer); not shown: 6His Avitag
T1 sequence (looked up): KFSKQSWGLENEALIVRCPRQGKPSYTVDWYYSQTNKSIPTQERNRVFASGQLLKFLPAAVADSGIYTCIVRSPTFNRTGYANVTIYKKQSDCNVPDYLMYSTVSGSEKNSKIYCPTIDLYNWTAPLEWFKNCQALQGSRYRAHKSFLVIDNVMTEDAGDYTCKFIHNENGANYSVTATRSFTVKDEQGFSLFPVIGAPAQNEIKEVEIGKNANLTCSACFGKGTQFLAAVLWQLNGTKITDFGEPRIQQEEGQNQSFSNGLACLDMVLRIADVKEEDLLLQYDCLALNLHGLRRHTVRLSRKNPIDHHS

T2: human IL33R (ST2) on human cells (human, UniProt Q01638 19-556)
T2 sequence (looked up): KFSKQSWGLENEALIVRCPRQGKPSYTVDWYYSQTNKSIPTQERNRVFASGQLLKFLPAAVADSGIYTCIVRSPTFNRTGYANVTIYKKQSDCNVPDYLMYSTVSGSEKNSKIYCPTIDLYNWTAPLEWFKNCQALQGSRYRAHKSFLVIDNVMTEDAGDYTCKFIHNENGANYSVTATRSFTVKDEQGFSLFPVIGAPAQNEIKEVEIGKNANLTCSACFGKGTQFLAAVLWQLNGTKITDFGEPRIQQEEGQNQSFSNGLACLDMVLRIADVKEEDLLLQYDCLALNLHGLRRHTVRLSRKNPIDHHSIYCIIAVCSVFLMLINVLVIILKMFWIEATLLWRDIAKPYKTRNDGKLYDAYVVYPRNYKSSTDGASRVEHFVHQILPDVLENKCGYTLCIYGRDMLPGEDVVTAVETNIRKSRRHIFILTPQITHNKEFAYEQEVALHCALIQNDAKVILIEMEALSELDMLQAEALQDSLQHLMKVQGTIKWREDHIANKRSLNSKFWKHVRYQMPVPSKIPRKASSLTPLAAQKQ

T3: recombinant human ST2/IL-1R4 Fc chimera (R&D Systems, Cat. No. 523-ST) (human, UniProt Q01638 19-328)
T3 construct: Bought product; also called ST2/IL-1R4 protein; not shown: Fc part of the bought chimera (captured by anti-human IgG Fc)
T3 sequence (looked up): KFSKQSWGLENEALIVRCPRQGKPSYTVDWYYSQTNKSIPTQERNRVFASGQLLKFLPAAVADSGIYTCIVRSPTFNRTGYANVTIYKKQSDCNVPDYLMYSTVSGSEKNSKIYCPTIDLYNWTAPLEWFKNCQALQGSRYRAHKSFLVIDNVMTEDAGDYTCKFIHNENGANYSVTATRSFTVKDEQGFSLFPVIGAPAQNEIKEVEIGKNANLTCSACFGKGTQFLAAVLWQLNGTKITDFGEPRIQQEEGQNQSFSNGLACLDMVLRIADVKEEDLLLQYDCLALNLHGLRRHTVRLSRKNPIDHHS


Assays:
[1] = target: T1, Monomeric human ST2 ECD with 6His Avitag; experiment: SPR (BIACORE T100, 37 C, pH 7.4), antibody captured by anti-human Fc, monomeric ST2 ECD in solution, apparent KD, 1:1 model
Experimental: (§1) Monomeric human ST2 ECD with 6His Avitag™ (Avidity, LLC, US) was added in various concentrations in solution. Association was measured by injection of ST2 ECD for a contact time of 120 sec. (single cycle-kinetic) at 37° C.; dissociation was measured by washing the chip surface with buffer for 1800 sec. at 37° C. For calculation of apparent KD and other kinetic parameters the Langmuir 1:1 model was used.

[2] = target: T2, human IL33R (ST2) on human cells; experiment: cell-based or functional assay
[3] = target: T2, human IL33R (ST2) on human cells; experiment: cell-based or functional assay; remark: listed apart in the source
[4] = target: T1, Monomeric human ST2 ECD with 6His Avitag; experiment: SPR (BIACORE T100, 37 C, pH 7.4), antibody captured by anti-human Fc, monomeric ST2 ECD in solution
Experimental: as §1

[5] = target: T3, recombinant human ST2/IL-1R4 Fc chimera …; experiment: competition ELISA: antibody against biotinylated human IL33 on captured human ST2/IL-1R4 Fc chimera
Experimental: (§2) The test was performed on 384 well MaxiSorp™ microtiter plates (Sigma-Aldrich, Nunc. DE, Cat. No. 464718) at RT. After each incubation step plates were washed 3 times with PBST (Phosphate Buffered Saline Tween®-20). […] Thereafter the wells were blocked with PBS supplemented with 0.1% Tween®-20 and 2% BSA (Roche Diagnostics GmbH, DE) for 1 h. […] Dilutions of purified antibodies or supernatants from hybridoma/B-cells in PBS with 0.5% BSA and 0.05% Tween®-20 were incubated with the receptor protein for 1 h. Biotinylated human IL33 (PeproTech, US, Cat No. 500-P261) was added for an additional hour to build up the complex. IL33 was biotinylated with Sulfo-NHS-LC-Biotin (Thermo Scientific Pierce, US, Cat. No. 21327) according to the manufacturer's protocol and purified using Zeba™ Desalt Spin Column (Thermo Scientific Pierce, US, Cat. No. 89889). Binding of the biotinylated IL33 to the complex was detected with 1:4000 diluted streptavidin HRP (Roche Diagnostics GmbH, DE, Cat. No. 11089153001). After 1 h the plates were washed 6 times with PBST and developed with freshly prepared BM blue POD substrate solution (BM blue: 3,3′-5,5′-Tetramethylbenzidine, Roche Diagnostics GmbH, DE, Cat. No. 11484281001) for 12 minutes at RT. Absorbance was measured at 370 nm. […]

[6] = target: cynomolgus IL33R (ST2) on cynomolgus NK cells (cynomolgus); experiment: cell-based or functional assay
[7] = target: T4, recombinant cyno ST2 Fc chimera (cynomolgus); experiment: competition ELISA: antibody against biotinylated human IL33 on captured cyno ST2 Fc chimera
T4 construct: also called cynomolgus ST2
Experimental: as §2

Binder	Kd [1]	NFkB IC50 [2]	IC50, IFN-γ secretion by human NK cells stimulated with IL33 and IL-12 [3]	koff [4]	kon [4]	t1/2 [4]	IC50 [5]	IC50, GM-CSF release of KU812 basophil cells stimulated with IL33 [3]	IC50, IL-5 release of KU812 basophil cells stimulated with IL33 [3]	IC50, IL-5 release of human Th2 cells restimulated with IL33 [3]	IC50, IL-5 release of primary mast cells stimulated with IL33 [3]	IC50, IL-13 release of KU812 basophil cells stimulated with IL33 [3]	IC50, IL-13 release of human Th2 cells restimulated with IL33 [3]	IC50, IL-13 release of primary mast cells stimulated with IL33 [3]	IC50, eosinophil viability (IL33 dependent survival) [3]	IC50, IFNγ release of cynomolgus NK cells stimulated with human IL33 and cynomolgus IL-12 [6]	IC50 [7]
humanized ra170 10.12 (antibody, V domains shown) VH: VQLVQSGAEVKKPGASVKVSCKASGFSLSSHDISWVRQAPGQGLEWMGYIWSDENTYYASWAQGRVTMTTDTSTSTAYMELRSLRSDDTAVYYCARDQYRSSGVSDYDIWGPGTLVTVSS VL: AAVMTQSPATLSVSPGERATLSCRSSQSVGNNNDLAWYQQKPGQAPRLLIYKASTRATGIPARFSGSGSGTEFTLTISSLQSEDFAVYYCLGGYDDDADNTFGGGTKVEIK	1.1 nM	0.28 nM	1.3 nM	0.0051 s⁻¹	4.9e+06 M⁻¹ s⁻¹	2 min	–	–	–	–	–	–	–	–	–	–	–
humanized ra170 11.12 (antibody, V domains shown) VH: VQLVQSGAEVKKPGASVKVSCKASGFSLSSHDISWVRQAPGQGLEWMGYIWSDESTYYASWAQGRVTMTTDTSTSTAYMELRSLRSDDTAVYYCARDQYRSSGVSDYDIWGPGTLVTVSS VL: AAVMTQSPATLSVSPGERATLSCRSSQSVGNNNDLAWYQQKPGQAPRLLIYKASTRATGIPARFSGSGSGTEFTLTISSLQSEDFAVYYCLGGYDDDADNTFGGGTKVEIK	0.14 nM	0.04 nM	1.8 nM	0.00043 s⁻¹	3.1e+06 M⁻¹ s⁻¹	27 min	–	–	–	–	–	–	–	–	–	–	–
Antibody ra170 (rabbit IgG1) (antibody, V domains shown, Rabbit monoclonal from B cell cloning; they are assigned to this molecule; also called Mab ra170; clone Ra170) VH: QSVEESGGRLVTPGTPLTLTCTVSGFSLSSHDMSWVRQAPGKGLEWIGYIWSDDNTYYASWAKGRFTISKTSTTVDLKITSPTTEDTATYFCARDQYRSSGVSDYDIWGPGTLVTVSS VL: AAVLTQTPSPVSAAVGGTVTISCQSSQSVGNNNDLAWYQQKPGQPPKILIYKASTLASGVPSRFEGSGSGTQFTLTISDVQCDDAATYYCLGGYDDDADNTFGGGTEVVVK	–	0.025 nM	0.27 nM	–	–	–	0.32 nM	1.31 nM	1.48 nM	2.77 nM	≤ 0.2 nM	3.49 nM	1.1 nM	≤ 0.4 nM	1.3 nM	0.109 nM	0.13 nM
ra170 IgG4 SPLE (antibody, V domains shown) VH: QSVEESGGRLVTPGTPLTLTCTVSGFSLSSHDMSWVRQAPGKGLEWIGYIWSDDNTYYASWAKGRFTISKTSTTVDLKITSPTTEDTATYFCARDQYRSSGVSDYDIWGPGTLVTVSS VL: AAVLTQTPSPVSAAVGGTVTISCQSSQSVGNNNDLAWYQQKPGQPPKILIYKASTLASGVPSRFEGSGSGTQFTLTISDVQCDDAATYYCLGGYDDDADNTFGGGTEVVVKR	0.0027 nM	–	–	1.3e-05 s⁻¹	4.6e+06 M⁻¹ s⁻¹	881 min	–	–	–	–	–	–	–	–	–	–	–
